Laboratory results from US9974865B2, “Antibody drug conjugates (ADC) that bind to FLT3 proteins” (AGENSYS, INC., priority 2015, dated 2018).

Legend:
Raji cells = assay: ADCC assay (CytoTox 96, LDH release), positive control cell line; assay type: cell-based, human; details: E:T=100:1, 2.5 ug/mL, 4 hours
EOL-1 cells = assay: EOL-1 growth with human FLT3 ligand and antibody (Cell Titer Glo, 5 days); assay type: cell-based
Description: The ability of FLT3 antibodies (CHv62.21 and v62-1b37.1) to mediate the effect of human FLT3 ligand was evaluated using the human leukemia EOL-1 cell line, which endogenously expresses FLT3. Isotype control antibody (mLys-1c3.1) was also used. […] The next day, cells were treated with 50, 10 or 5 ng/mL of human FLT3 ligand (in 25 μl of complete media) and 10, 1, 0.1 and 0 μg/mL of test antibody (in 25 μl of complete media). Media alone was used as the untreated control. […] At the end of the incubation period, 100 μl of Cell Titer Glo was added to each well and incubated for 30 minutes, shaking, at room temperature.

cell surface FLT3 = cell surface FLT3 (Homo sapiens, UniProt P36888); assay: Binding to cell surface FLT3 by flow cytometry
Excerpt: To express CHv62.21 MAb recombinantly in transfected cells, v62.21 hybridoma MAb variable heavy and light chain sequences were cloned upstream of the human heavy chain IgG1 and human light chain Igκ constant regions respectively. The complete CHv62.21 MAb human heavy chain and light chain cassettes were cloned downstream of the CMV promoter/enhancer in a cloning vector. The recombinant CHv62.21 MAb expressing construct was transfected into CHO cells for stable expression in the Lonza GS system (Lonza, Basel, Switzerland). The CHv62.21 MAb secreted from recombinant CHO cells was purified and evaluated for binding to cell surface FLT3 by flow cytometry.
To express CHv62.21pAF recombinantly in transfected cells, v62-1b21 hybridoma MAb variable heavy and light chain sequences were cloned upstream of the human heavy chain IgG1 and human light chain Igκ constant regions respectively. The complete CHv62.21 MAb human heavy chain and light chain cassettes were cloned downstream of the CMV promoter/enhancer in a cloning vector. […] The CHv62.21pAF secreted from the stable subclone was purified and evaluated for binding to cell surface FLT3 by flow cytometry.

RS-4-11 cells = assay type: cell-based, human
Description: Briefly, The RS-4-11 cells were seeded in 50 μl of complete media at a density of 3000 cells per well onto 96 well plates and placed in a tissue culture incubator at 37° C.; 5% CO2. The next day, the ADCs were prepared in complete media at 10 μg/mL and serially diluted 1:5 for a total of 9 points. […] At the end of the incubation period, 20 μl of Presto Blue was added to each well and incubated for 2 hours. The plates were read using a BioTek Synergy H4 plate reader using 540 Excitation and 590 Emission wavelengths and graphed using Graphpad Prism software.

For Rituximab, the ADCC activity (Raji cells) was “confirms ADCC activity”.

B1: Human FLT3 ligand: human FLT3 ligand purchased from R and D Systems (protein)
chain: TQDCSFQHSPISSDFAVKIRELSDYLLQDYPVTVASNLQDEELCGGLWRLVLAQRWMERLKTVAGSKMQGLLERVNTEIHFVTKCAFQPPPSCLRFVQTNISRLLQETSEQLVALKPWITRQNFSRCLELQCQPDSSTLPPPWSPRPLEATAPTAPQPP
With B1 the “effect on growth, FLT3 ligand alone” value (EOL-1 cells) was “no effect on growth”.

B2: v62-1b21: hybridoma FLT3 MAb from VelocImmune mice, fully human variable regions and mouse constant regions (antibody, V domains shown)
VH: EVQLVESGGGLVRPGGSLRLSCAASGFTFSGYSINWVRQAPGKGLEWVSSISSSSNYIYYADSVKGRFTISRDNAKNSLYLQMNSLRAEDTAVYYCAREGFIAGTTFDAFDIWGQGTMVTVSS
VL: DIQMTQSPSSLSASVGDRVTITCRASQGIRNDLGWYQQKPGKAPKRLIYAASSLQSGVPSRFSGSGSGTEFTLTISSLQPEDFATYYCLQHNGFPYTFGQGTKLEIKR
With B2 the “binding to cell surface FLT3” value (cell surface FLT3) was “specifically binds to Flt3 protein and Flt3 expressing cells”.

B3: v62-1b21.1-AGL-0129-08 (conjugate)
VH: B2 VH
VL: B2 VL
With B3 the cytotoxicity (RS-4-11 cells) was “can induce cytotoxicity”.
